No end group written: not given here. *: point of attachment. methylmercury = [CH3][Hg]*
How the values were obtained:
[1] = Particle size and polydispersity by dynamic light scattering (Litesizer 500); type: physicochemical; conditions: for Hydrodynamic Diameter / Polydispersity: colloids produced by the amphipathic sequence in soy oil
Description: (§1) Encapsulation studies-Winterized Soybean oil (Archer Daniel Midlands, Chicago, IL) 50 μL was added to 2 mg of dry peptide and vortexed for 2 min. Deionized distilled-reverse osmosis (DDI-RO) water was added to a final volume of 1 mL. This mixture was sonicated (bath sonicator) for 15 min at 37° C. The generated CAPC are maintained at RT for at least 1 h prior to confocal microscopy. For the solvent/oil encapsulation study reagent grade-Benzene (Sigma-Aldrich, St. Louis, MO), Cyclohexane (Acros Organics, Geel, Belgium), n-Decane (grade 99+%, Sigma-Aldrich, St. Louis), Migloyl® 812N; capric triglyceride (Pharma Grade, IOI Oleo GmbH, Witten, Germany), and Mineral oil paraffin (USP, Thermo-Fisher Scientific, Waltham, MA) and Winterized Soy oil (Archer Daniel Midlands, Chicago, IL) were used. […] prepared using 50 μL of the solvent/oil along with 480 μL of DDI-RO water were sonicated for 15 min. CAPC, 2 mg, was subsequently added and sonicated for 10 min. These samples were measured 24 h thereafter for their size, Zeta potential and their circular dichroism (CD) spectra recorded. Particle size/Zeta potential-The samples were analyzed using a LitesizerTM 500 Particle Size Analyzer (Anton Paar GmbH, Graz, Austria) using an Omega Cuvette at 25° C. The size distribution of the particles was analyzed with the proprietary KalliopeTM v.2.16 software (Anton Paar GmbH, Graz, Austria) using the intensity-weighing model. For the Zeta potential analysis, the suspension used above was diluted to 5-fold in DDI-RO prior to analysis.

[2] = Zeta potential analysis (Litesizer 500); type: physicochemical
Description: as §1

[3] = colloids produced by the amphipathic sequence in soy oil

Row | Substance | Hydrodynamic Diameter [1] [nm] | Polydispersity [1] [%] | Zeta Potential [2, 3] [mV] | average (mean) diameter ([1]; peptide complexed with soy oil droplets, DLS intensity peak) [nm] | Zeta Potential ([2]; peptide complexed with soy oil droplets) [mV]
1 | 5(6)-Ac-FLIVI-KKKKK- C-CF (Ac-FLIVIKKKKKC; also: 5(6)-carboxyfluorescein label (C-CF), attachment not given here) | 766 ± 225.0 | 21 ± 4.8 | 25 ± 2.7 |  | 
2 | Ac-FAAAA-KKKKK-CONH2 (Ac-FAAAAKKKKK-NH2) [oligo-alanine peptide] | 681 | 500 | 10.2 |  | 
3 | Ac-FLIVI-KKKKK-C-Me-Hg (Ac-FLIVIKKKKKC(methylmercury)) | 578 ± 96.0 | 25 ± 5.8 | 33 ± 4.0 |  | 
4 | Ac-FLIVI-KKKKK-CO-NH2 (Ac-FLIVIKKKKK-NH2) [Ac-FLIVI-KKKKK-CONH2] | 560 | 20 | 38 | 465 | 44.8
5 | Ac-FLIVIGSII-KKKKK-CONH2 (Ac-FLIVIGSIIKKKKK-NH2) [Ac-FLIVIGSII-KKKKKCONH2] | 300 | 23 | 21 |  | 
6 | Ac-FLLLL-KKKKK-CONH2 (Ac-FLLLLKKKKK-NH2) | 666 | 200 | −0.6 |  | 
7 | Ac-IVFLI-KKKKK-CONH2 (Ac-IVFLIKKKKK-NH2) | 594 | 25 | 25 |  | 

From US20250339382A1, “CORRALLING AMPHIPATHIC PEPTIDE COLLOIDS” (KANSAS STATE UNIVERSITY RESEARCH FOUNDATION, priority 2022, published 2025)
